Where no end group is shown, it is not given here.
Assays:
[1] = molecular target: T1, PSMA Fab; assay: clonal phage ELISA on biotinylated PSMA Fab captured on neutravidin plates, anti-M13 HRP detection;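 note: crude clonal phage supernatants tested, before phage were added, wells were pretreated with PSMA antigen in blocking buffer or with blocking buffer only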
T1 construct: In the phage ELISA the PSMA Fab was biotinylated and captured on neutravidin coated plates; also called Anti-PSMA Fab; 006 PSMA Fab
Description: (§1) Clonal phage were harvested as crude supernatants and screened via standard ELISAs. […] Prior to the addition of clonal phage. wells were incubated with blocking buffer and PSMA antigen or blocking buffer alone. Without washing or aspirating, clonal phage supernatants were then added to the wells and incubated for a short time. Wells were then washed followed by detection of bound phage using a horse radish conjugated anti-M13 antibody.

[2] = molecular target: T2, PSMA Fab; assay: phage ELISA, clonal phage on biotinylated PSMA Fab captured on neutravidin plate, anti-M13 HRP detection;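 note: crude clonal phage supernatants added to wells preincubated with PSMA antigen in blocking buffer or with blocking buffer only, giving a competition and a no-competitor control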
T2 construct: In the phage ELISA the PSMA Fab was biotinylated and captured on neutravidin coated plates; also called anti-PSMA Fab; 006 PSMA Fab
Description: as §1

[3] = molecular target: T2, PSMA Fab; assay: phage ELISA, clonal phage on captured PSMA Fab pre-incubated with PSMA antigen as competitor, anti-M13 HRP detection
Description: as §1

[4] = molecular target: T3, PSMA Fab; assay: clonal phage ELISA; biotinylated PSMA Fab on neutravidin plate, blocking buffer alone; anti-M13 HRP detection;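 note: crude clonal phage supernatants added without washing to wells pretreated with blocking buffer with or without PSMA antigen, short incubation, then washed before detecting bound phage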
T3 construct: also called Anti-PSMA Fab; 006 PSMA Fab
Description: as §1

[5] = molecular target: T3, PSMA Fab; assay: clonal phage ELISA; biotinylated PSMA Fab on neutravidin plate, wells first incubated with PSMA antigen as competitor; anti-M13 HRP detection
Description: as §1

[6] = molecular target: T4, PSMA Fab (biotinylated (site not stated)); assay: clonal phage ELISA; biotinylated PSMA Fab on neutravidin plate, blocking buffer alone; anti-M13 HRP detection;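 note: crude clonal phage supernatants added without washing to wells pretreated with blocking buffer with or without PSMA antigen, short incubation, then washed before detecting bound phage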
T4 construct: The panning ELISA names only 'biotinylated PSMA Fab' captured on neutravidin coated plates; also called Anti-PSMA Fab; 006 PSMA Fab

[7] = molecular target: T4, PSMA Fab; assay: clonal phage ELISA; biotinylated PSMA Fab on neutravidin plate, wells pre-incubated with PSMA antigen as competitor; anti-M13 HRP detection;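 note: crude clonal phage supernatants added to antigen-treated wells without a wash, incubated briefly, then bound phage read out via horse radish–conjugated anti-M13 antibody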
Description: as §1

| Binder | Phage binding ELISA signal, Anti-PSMA Fab [1] | Phage binding ELISA signal, Anti-PSMA Fab [2] | Phage binding ELISA signal, Anti-PSMA Fab in presence of PSMA [3] | further results |
| --- | --- | --- | --- | --- |
| VAVMCRPAWMCYGF [Phage-3297] | 1.88 | – | – | – |
| ENHYCRPAWMCNGF [Phage-3393] | – | 1.8 | 0.106 | – |
| VERYCVPQWMCDGF [Phage-3403] | – | 1.8 | 0.117 | – |
| ETFKCVPEWMCTGL [Phage-3298] | 1.88 | – | – | – |
| TNPMCVPEWMCYGF [Phage-3468] | – | – | – | Phage binding ELISA signal, Anti-PSMA Fab [4]: 1.73; phage binding ELISA signal, Anti-PSMA Fab in the presence of PSMA [5]: 0.0628 |
| EIKHCIPEWMCSGF (cysteine pairing not given here; also: fused to pIII of bacteriophage) [Phage-3464] | – | – | – | Phage binding ELISA signal, Anti-PSMA Fab [4]: 1.74; phage binding ELISA signal, Anti-PSMA Fab in the presence of PSMA [5]: 0.104 |
| VESMCKPAWMCIGF [Phage-3300] | 1.88 | – | – | – |
| WEHRCTPEWMCTGF (also called Peptide-180 library clone) [Phage-3238] | – | – | – | Phage binding ELISA signal, Anti-PSMA Fab [6]: 1.94; Phage binding ELISA signal, Anti-PSMA Fab with PSMA antigen [7]: 0.0937 |
| VVIQCQPAWMCDGF [Phage-3296] | 1.88 | – | – | – |
| HDAMCKPAWMCAGF [Phage-3299] | 1.88 | – | – | – |
| EMFRCTPEWMCAGL (cysteine pairing not given here; also: fused to pIII of bacteriophage) [Phage-3307] | 1.87 | – | – | – |
| VERLCMPEWMCLGF (also called Peptide-180 library clone) [Phage-3235] | – | – | – | Phage binding ELISA signal, Anti-PSMA Fab [6]: 1.95; Phage binding ELISA signal, Anti-PSMA Fab with PSMA antigen [7]: 0.126 |
| HSALCIPSWMCQGF [Phage-3305] | 1.87 | – | – | – |
| ASVLCVPAWMCSGF [Phage-3395] | – | 1.8 | 0.0808 | – |
| WEARCQPTWMCTGF (cysteine pairing not given here; also: fused to pIII of bacteriophage) [Phage-3467] | – | – | – | Phage binding ELISA signal, Anti-PSMA Fab [4]: 1.73; phage binding ELISA signal, Anti-PSMA Fab in the presence of PSMA [5]: 0.0667 |
| DGIRCVPNWMCVGF (also called Peptide-180 library clone) [Phage-3234] | – | – | – | Phage binding ELISA signal, Anti-PSMA Fab [6]: 1.95; Phage binding ELISA signal, Anti-PSMA Fab with PSMA antigen [7]: 0.0969 |
| MPPVCIPRWMCEGF [Phage-3301] | 1.88 | – | – | – |
| TEILCVPEWMCIGL [Phage-3392] | – | 1.8 | 0.0705 | – |
| EVLLCKPEWMCTGF (cysteine pairing not given here; also: fused to pIII of bacteriophage) [Phage-3463] | – | – | – | Phage binding ELISA signal, Anti-PSMA Fab [4]: 1.74; phage binding ELISA signal, Anti-PSMA Fab in the presence of PSMA [5]: 0.0669 |
| GFPWCEPQWMCIGF [Phage-3396] | – | 1.8 | 0.114 | – |

| Binder | Phage binding ELISA signal, Anti-PSMA Fab [1] | Phage binding ELISA signal, Anti-PSMA Fab [2] | Phage binding ELISA signal, Anti-PSMA Fab in presence of PSMA [3] | further results |
| --- | --- | --- | --- | --- |
| ETHFCKPKWMCVGF (cysteine pairing not given here; also: fused to pIII of bacteriophage) [Phage-3465] | – | – | – | Phage binding ELISA signal, Anti-PSMA Fab [4]: 1.74; phage binding ELISA signal, Anti-PSMA Fab in the presence of PSMA [5]: 0.0927 |
| EHYACKPEWMCAGF (cysteine pairing not given here; also: fused to pIII of bacteriophage) [Phage-3304] | 1.87 | – | – | – |
| FERLCIPEWMCSAF [Phage-3400] | – | 1.8 | 0.102 | – |
| TQALCKPAWMCKGF [Phage-3399] | – | 1.8 | 0.0703 | – |
| VDRFCEPIWMCIGF [Phage-3306] | 1.87 | – | – | – |
| ITVICKPAWMCEFL [Phage-3394] | – | 1.8 | 0.0613 | – |
| LEAACRPMWMCLGF (cysteine pairing not given here; also: fused to pIII of bacteriophage) [Phage-3466] | – | – | – | Phage binding ELISA signal, Anti-PSMA Fab [4]: 1.73; phage binding ELISA signal, Anti-PSMA Fab in the presence of PSMA [5]: 0.0664 |
| AALRCVPTWMCEGF [Phage-3404] | – | 1.79 | 0.0793 | – |
| TEVMCRPLWMCAGF [Phage-3295] | 1.89 | – | – | – |
| FGIYCVPEWMCTGL [Phage-3397] | – | 1.8 | 0.0891 | – |
| GWPVCVPPWMCDGF [Phage-3303] | 1.87 | – | – | – |
| PLPMCVPAWMCAGF (cysteine pairing not given here; also: fused to phage pIII, fusion site not given here, also called Peptide-180 library clone) [Phage-3236] | – | – | – | Phage binding ELISA signal, Anti-PSMA Fab [6]: 1.95; Phage binding ELISA signal, Anti-PSMA Fab with PSMA antigen [7]: 0.133 |
| QFLVCKPSWMCNGF [Phage-3402] | – | 1.8 | 0.0882 | – |
| FRDYCVPPWMCVGM [Phage-3401] | – | 1.8 | 0.0791 | – |
| MLLQCKPSWMCAGF [Phage-3302] | 1.87 | – | – | – |
| EYHKCIPEWMCAGF (cysteine pairing not given here; also: fused to phage pIII, fusion site not given here, also called Peptide-180 library clone) [Phage-3237] | – | – | – | Phage binding ELISA signal, Anti-PSMA Fab [6]: 1.94; Phage binding ELISA signal, Anti-PSMA Fab with PSMA antigen [7]: 0.0924 |
| IELMCRPLWMCMGF [Phage-3398] | – | 1.8 | 0.0966 | – |
| EIVKCVPPWMCSGI [Phage-3469] | – | – | – | Phage binding ELISA signal, Anti-PSMA Fab [4]: 1.73; phage binding ELISA signal, Anti-PSMA Fab in the presence of PSMA [5]: 0.0727 |
| VDQVCIPDWMCNGF [Phage-3470] | – | – | – | Phage binding ELISA signal, Anti-PSMA Fab [4]: 1.73; phage binding ELISA signal, Anti-PSMA Fab in the presence of PSMA [5]: 0.0771 |

Source: patent publication US20260242478A1 (published 2026)
